How the values were obtained:
[1] = biological target: mutated I83 trastuzumab memAb (I83E); experiment: SPR at 37° C., meditope over immobilised I83E trastuzumab memAb
[2] = biological target: Her2 (antigen in the SPR of Example 1, FIG. 14) (UniProt P04626); experiment: SPR
HER2-Fc (R&D Systems) = HER2-Fc (R&D Systems) (UniProt P04626); experiment: SPR (Biacore T200), HER2-Fc amine-coupled to a CM5 chip, Fab flowed over; ± is the SD of three runs
HER2 on SKBR3 cells = HER2 on SKBR3 cells (UniProt P04626); experiment: Flow cytometry on SKBR3 cells with 10 nM complex on ice and an AF488 secondary antibody. The other quadrants are printed as Q1 1.19, Q3 0 and Q4 0.18.
[3] = biological target: original trastuzumab memAb (meditope-enabled trastuzumab, I83 in the light chain); experiment: SPR at 37° C., meditope over immobilised original trastuzumab memAb

| Kd [1] | Kd (HER2-Fc (R&D Systems)) | koff (HER2-Fc (R&D Systems)) | kon (HER2-Fc (R&D Systems)) | further results | Substance |
| --- | --- | --- | --- | --- | --- |
| 0.86 nM | – | – | – | – | 5-diphenylalanine meditope (FIG. 3) (peptide) |
| – | 0.863 nM | 0.000674 s⁻¹ | 1.04e+06 M⁻¹ s⁻¹ | Kd [2]: 0.055 nM; koff [2]: 0.00021 s⁻¹; kon [2]: 3.8e+06 M⁻¹ s⁻¹ | Trastuzumab I83E Fab (meditope-enabled trastuzumab V2 Fab) |
| – | 0.296 nM | 0.000378 s⁻¹ | 1.28e+06 M⁻¹ s⁻¹ | – | Trastuzumab I83E, A175C Fab |
| – | – | – | – | Q2 (share of events positive for both the AF647 meditope and the AF488 secondary antibody) (HER2 on SKBR3 cells): 98.6 | A175C meFab conjugated to the AlexaFluor647 thiopyridine-meditope |
| 38 nM | – | – | – | Kd [3]: 1000 nM | original meditope, Ac-…-Am (peptide) |

Source: US20200368364A1, “CYSTEINE PEPTIDE-ENABLED ANTIBODIES” (City of Hope, priority 2016, published 2020)
